The source of these data is publication PMC8141524, “The uncharacterized SANT and BTB domain-containing protein SANBR inhibits class switch recombination” (The Journal of Biological Chemistry, 2021).

The target of one data set is T1, GST-tagged mouse HDAC1 (mouse, UniProt O09106 1-482).
T1 construct: histone deacetylase 1 (HDAC1), mouse; also called GST-HDAC1; source: E. coli BL21DE3(RIPL), purified (glutathione sepharose 4B, SEC)
In words: pull-down; 200 nM His6-tagged BTB domain with equimolar GST-tagged protein, 50 mM HEPES pH 8.0, 150 mM NaCl, 0.1% IGEPAL-CA630, 2 mM EDTA, 4 °C; glutathione sepharose 4B; immunoblot anti-His. Particulars: both partners purified.

Data set [1] deals with the molecule itself. Kind of data set: SEC; purified His6-SANBR(BTB) on a Superdex-200 10/30 column, compared with molecular weight standards; SEC buffer 10 mM HEPES pH 8.0, 0.3 M NaCl, 10% glycerol, 1 mM TCEP.

T1 sequence (O09106 whole entry): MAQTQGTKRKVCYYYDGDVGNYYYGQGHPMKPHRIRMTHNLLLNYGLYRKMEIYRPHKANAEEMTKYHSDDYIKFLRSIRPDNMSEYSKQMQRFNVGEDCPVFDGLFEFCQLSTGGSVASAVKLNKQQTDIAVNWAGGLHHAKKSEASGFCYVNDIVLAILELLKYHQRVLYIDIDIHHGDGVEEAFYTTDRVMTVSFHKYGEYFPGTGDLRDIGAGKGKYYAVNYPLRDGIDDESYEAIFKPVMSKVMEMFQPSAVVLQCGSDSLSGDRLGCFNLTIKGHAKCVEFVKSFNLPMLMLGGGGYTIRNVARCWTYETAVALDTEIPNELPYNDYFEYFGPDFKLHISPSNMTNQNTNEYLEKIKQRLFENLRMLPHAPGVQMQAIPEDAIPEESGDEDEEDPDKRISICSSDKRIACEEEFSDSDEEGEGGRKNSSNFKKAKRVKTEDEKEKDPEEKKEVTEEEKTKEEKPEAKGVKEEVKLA

B1: His6-SANBR(BTB), the predicted BTB domain of SANBR (amino acids 144-261) (domain or fragment, mouse, UniProt Q68FF0-1 144-261, looked up)
chain: GPNMVIHVCDEAKSLKEDFICPRDLLISEMKYFAEYLSMDAQRWEEVDISVHCDVHIFNWLIKYVKRNTKESKDCEIPALEPGNVISILISSEFLKMDSLVEQCIQYCHKNMNAIVAA
notes: SANBR (KIAA1841), mouse, residues 144-261 containing the BTB domain (predicted BTB domain 147-255); full-length protein has 718 amino acids; cDNA cloned from stimulated mouse splenic B cells; predicted size of the tagged fragment 15 kD; also called His6-tagged SANBR(BTB); KIAA1841 BTB domain; source: E. coli BL21DE3(RIPL), purified (HisTrap FF, SEC); not shown: His6, N-terminal, kept
With B1, the binding result with GST-tagged mouse HDAC1 is on record as “binds”. Moreover, the “stoichiometry N” value in data set [1] is 2.
